Measured values as given in the supplement of paper PMC10567573.

B1: PTPRD (parent)
chain: ELDELLKEISRKRRSIRYGREVEL

Variants of: B1
Test: protein stability index of a GFP-peptide fusion (GPS, HEK-293T) (PSI 1-6); higher = more stable
Details: c terminus: a fixed tail appended
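Also: lentivirally expressed fusions sorted by FACS into six bins by GFP to DsRed ratio, PSI derived from sequencing read proportions per bin multiplied by bin number.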

| Variant | protein stability index |
| --- | --- |
| ELDELLKEISRKRRSIRYGAEVEL | 2.85 |
| ELDELLKEISRKRRSIRYGCEVEL | 2.01 |
| ELDELLKEISRKRRSIRYGDEVEL | 3.33 |
| ELDELLKEISRKRRSIRYGEEVEL | 2.71 |
| ELDELLKEISRKRRSIRYGFEVEL | 1.64 |
| ELDELLKEISRKRRSIRYGGEVEL | 2.23 |
| ELDELLKEISRKRRSIRYGHEVEL | 2.08 |
| ELDELLKEISRKRRSIRYGIEVEL | 2.11 |
| ELDELLKEISRKRRSIRYGKEVEL | 2.17 |
| ELDELLKEISRKRRSIRYGLEVEL | 1.84 |
| ELDELLKEISRKRRSIRYGMEVEL | 2.02 |
| ELDELLKEISRKRRSIRYGNEVEL | 2.8 |
| ELDELLKEISRKRRSIRYGPEVEL | 2.49 |
| ELDELLKEISRKRRSIRYGQEVEL | 2.42 |
| ELDELLKEISRKRRSIRYGSEVEL | 3.33 |
| ELDELLKEISRKRRSIRYGTEVEL | 2.45 |
| ELDELLKEISRKRRSIRYGVEVEL | 1.8 |
| ELDELLKEISRKRRSIRYGWEVEL | 1.43 |
| ELDELLKEISRKRRSIRYGYEVEL | 1.89 |
| ELDELLKEISRKRRSIRYGRAVEL | 2.16 |
| ELDELLKEISRKRRSIRYGRCVEL | 2.55 |
| ELDELLKEISRKRRSIRYGRDVEL | 1.79 |
| ELDELLKEISRKRRSIRYGRFVEL | 2.22 |
| ELDELLKEISRKRRSIRYGRGVEL | 2.22 |

| Variant | protein stability index |
| --- | --- |
| ELDELLKEISRKRRSIRYGRHVEL | 2.06 |
| ELDELLKEISRKRRSIRYGRIVEL | 1.82 |
| ELDELLKEISRKRRSIRYGRKVEL | 2.09 |
| ELDELLKEISRKRRSIRYGRLVEL | 2.12 |
| ELDELLKEISRKRRSIRYGRMVEL | 1.86 |
| ELDELLKEISRKRRSIRYGRNVEL | 1.93 |
| ELDELLKEISRKRRSIRYGRPVEL | 2.71 |
| ELDELLKEISRKRRSIRYGRQVEL | 2.13 |
| ELDELLKEISRKRRSIRYGRRVEL | 2.23 |
| ELDELLKEISRKRRSIRYGRSVEL | 1.86 |
| ELDELLKEISRKRRSIRYGRTVEL | 3.01 |
| ELDELLKEISRKRRSIRYGRVVEL | 1.86 |
| ELDELLKEISRKRRSIRYGRYVEL | 2.15 |
| ELDELLKEISRKRRSIRYGREAEL | 1.82 |
| ELDELLKEISRKRRSIRYGRECEL | 2.29 |
| ELDELLKEISRKRRSIRYGREDEL | 2.96 |
| ELDELLKEISRKRRSIRYGREEEL | 3.18 |
| ELDELLKEISRKRRSIRYGREFEL | 2.22 |
| ELDELLKEISRKRRSIRYGREGEL | 2.64 |
| ELDELLKEISRKRRSIRYGREHEL | 2.88 |
| ELDELLKEISRKRRSIRYGREIEL | 2.17 |
| ELDELLKEISRKRRSIRYGREKEL | 2.34 |
| ELDELLKEISRKRRSIRYGRELEL | 2.14 |
| ELDELLKEISRKRRSIRYGREMEL | 2.85 |

| Variant | protein stability index |
| --- | --- |
| ELDELLKEISRKRRSIRYGRENEL | 2.35 |
| ELDELLKEISRKRRSIRYGREPEL | 2.04 |
| ELDELLKEISRKRRSIRYGREQEL | 2.5 |
| ELDELLKEISRKRRSIRYGREREL | 2.46 |
| ELDELLKEISRKRRSIRYGRESEL | 2.79 |
| ELDELLKEISRKRRSIRYGRETEL | 2.52 |
| ELDELLKEISRKRRSIRYGREWEL | 2.39 |
| ELDELLKEISRKRRSIRYGREYEL | 2.27 |
| ELDELLKEISRKRRSIRYGREVAL | 2.31 |
| ELDELLKEISRKRRSIRYGREVCL | 1.96 |
| ELDELLKEISRKRRSIRYGREVDL | 2.12 |
| ELDELLKEISRKRRSIRYGREVFL | 2.05 |
| ELDELLKEISRKRRSIRYGREVGL | 2.41 |
| ELDELLKEISRKRRSIRYGREVHL | 2.51 |
| ELDELLKEISRKRRSIRYGREVIL | 2.38 |
| ELDELLKEISRKRRSIRYGREVKL | 1.74 |
| ELDELLKEISRKRRSIRYGREVLL | 2.85 |
| ELDELLKEISRKRRSIRYGREVML | 2.08 |
| ELDELLKEISRKRRSIRYGREVNL | 2.54 |
| ELDELLKEISRKRRSIRYGREVPL | 2.56 |
| ELDELLKEISRKRRSIRYGREVQL | 2.25 |
| ELDELLKEISRKRRSIRYGREVRL | 2.17 |
| ELDELLKEISRKRRSIRYGREVSL | 2.47 |
| ELDELLKEISRKRRSIRYGREVTL | 2.34 |

| Variant | protein stability index |
| --- | --- |
| ELDELLKEISRKRRSIRYGREVVL | 2.57 |
| ELDELLKEISRKRRSIRYGREVWL | 2.09 |
| ELDELLKEISRKRRSIRYGREVYL | 1.92 |
| ELDELLKEISRKRRSIRYGREVEA | 2.69 |
| ELDELLKEISRKRRSIRYGREVEC | 2.38 |
| ELDELLKEISRKRRSIRYGREVED | 2.33 |
| ELDELLKEISRKRRSIRYGREVEE | 2.77 |
| ELDELLKEISRKRRSIRYGREVEF | 2.55 |
| ELDELLKEISRKRRSIRYGREVEG | 2.5 |
| ELDELLKEISRKRRSIRYGREVEH | 2.91 |
| ELDELLKEISRKRRSIRYGREVEI | 2.42 |
| ELDELLKEISRKRRSIRYGREVEK | 2.33 |
| ELDELLKEISRKRRSIRYGREVEM | 2.73 |
| ELDELLKEISRKRRSIRYGREVEN | 2.97 |
| ELDELLKEISRKRRSIRYGREVEP | 2.89 |
| ELDELLKEISRKRRSIRYGREVEQ | 2.32 |
| ELDELLKEISRKRRSIRYGREVER | 3.13 |
| ELDELLKEISRKRRSIRYGREVES | 2.69 |
| ELDELLKEISRKRRSIRYGREVET | 2.86 |
| ELDELLKEISRKRRSIRYGREVEV | 2.92 |
| ELDELLKEISRKRRSIRYGREVEW | 2.42 |
| ELDELLKEISRKRRSIRYGREVEY | 2.54 |
